Experiment [1] deals with Aspergillus ethanol precipitate (EP). The experiment in a line: rIntL-1 binding to Aspergillus ethanol precipitate, ELISA. Particulars: buffer with 10 mM CaCl2. On the procedure: Wells of a microtiter plate were coated with 10 μg/ml of EP antigen and blocked with a blocking buffer containing 0.1% BSA in IntL-ELISA buffer (20 mM HEPES pH7.4; 150 mM NaCl; 10 mM CaCl2); 0.1% Tween-20. Ref: Wesener et al. (2015) Nature Structural & Molecular Biology, 22(8):603). Recombinant human IntL-1 (rintL-1) was serially diluted tenfold in blocking buffer starting at 10^−6 M, and incubated on the EP-coated plate for 2 h at 30° C., followed by washes with IntL-ELISA buffer. The bound IntL was detected by an anti-omentin Rabbit IgG ab (Millipore) diluted 1:1000 in blocking buffer and incubated at 30° C. for 2 h. Wells were again washed and incubated with a goat anti-Rabbit IgG-AP at 1:1000 for 1 h at 30° C. Following another wash, the color was developed by AP substrate for 30 minutes at 37° C.
Conidia from Aspergillus fumigatus were counted and adjusted to 10^6/mL in Sabouraud's Dextrose broth, and grown for 6 hours at 37° C. to germinate (forming hyphae). The collection of swollen, germinating conidia and growing hyphae from already-germinated conidia were killed with heat at 90° C. for 1 h. The fungal material (killed conidia and hyphae) was pelleted by centrifugation, resuspended in IntL-ELISA blocking buffer, and incubated with 10^−7 M rIntL-1 (FLAG-tagged) in presence of 10 μg/mL of either MAb476 or an irrelevant, isotype control antibody mouse IgM for 2 h at 30° C. […]

The subject of experiment [2] is Aspergillus fumigatus conidia and hyphae. The experiment in a line: rIntL-1 binding to conidia and hyphae, fluorescence microscopy. On the procedure:
Conidia from Aspergillus fumigatus were counted and adjusted to 10^6/mL in Sabouraud's Dextrose broth, and grown for 6 hours at 37° C. to germinate (forming hyphae). The collection of swollen, germinating conidia and growing hyphae from already-germinated conidia were killed with heat at 90° C. for 1 h. The fungal material (killed conidia and hyphae) was pelleted by centrifugation, resuspended in IntL-ELISA blocking buffer, and incubated with 10^−7 M rIntL-1 (FLAG-tagged) in presence of 10 μg/mL of either MAb476 or an irrelevant, isotype control antibody mouse IgM for 2 h at 30° C. Following washes with IntL-ELISA buffer, the material was resuspended in IntL-ELISA blocking buffer and incubated with a 1:50 diluted anti-FLAG tag antibody conjugated to the red fluorochrome phycoerythrin (PE). Again, after washes, the stained material was resuspended in IntL-ELISA blocking buffer, transferred to chamber slides and observed under a fluorescent microscope. The inventors performed experiments wherein Aspergillus ethanol precipitate and whole cells (conidia and hyphae) were exposed to rIntL-1 and then a sandwich assay using Rabbit polyclonal antibodies to INTL-1 and goat anti-rabbit antibodies with a fluorescent ligand were performed in buffer comprising 10 mM CaCl2). […] Thus, IntL-1 could be the competitive agent which is interfering with the inventors' antibodies to galF.

Experiment [3] is described as follows: Western blot of urine with mAb476. Type of experiment: binding, human. As to the method:
Studies were performed using urine collected from control patients (pooled) and patient who had Aspergillus infection (VU7). The samples were run in a reducing SDS polyacrylamide gel electrophoresis (PAGE), and the resolved proteins were transferred to a nylon membrane for performing a Western Blot. Some samples used concentrated urine (denoted by “c”) using an Amicon concentrator or were pretreated by desalting columns (denoted by “ds”).
On the technique in general: Immunoblotting shows a protein as a band on a membrane.

Experiment [4] in a line: Immunoprecipitation of urine with mAb476-coated dynabeads. Format: binding, human. The following applies: normal urine. As to the method:
Studies were performed to identify the proteins that are bound by mAb476 after immunoprecipitation, using mass spectrophotometry. To enrich sample detection of moieties specifically binding to mAb476, urines were incubated with superparamagnetic dynabeads coated with mAb476 and a mouse control antibody. mAb476 reactive material was eluted with 50 mM glycine (pH 2.5-3.0). […] Reactivity to mAb476 eluates was confirmed by sandwich ELISA. Eluates were then run on SDS-PAGE gels to check for band patterns, and in-solution mass spectrometry analysis was performed. Analysis detected the microbial antigen CelA/Aspf7 (a galF-containing 0-glycan).

B1: rINTL-1: Recombinant human IntL-1 (intelectin-1), FLAG-tagged in the cell binding test (protein)
chain: TDEANTYFKEWTCSSSPSLPRSCKEIKDECPSAFDGLYFLRTENGVIYQTFCDMTSGGGGWTLVASVHENDMRGKCTVGDRWSSQQGSKAVYPEGDGNWANYNTFGSAEAATSDDYKNPGYYDIQAKDLGIWHVPNKSPMQHWRNSSLLRYRTDTGFLQTLGHNLFGIYQKYPVKYGEGKCWTDNGPVIPVVYDFGDAQKTASYYSPYGQREFTAGFVQFRVFNNERAANALCAGMRVTGCNTEHHCIGGGGYFPEASPQQCGDFSGFDWSGYGTHVGYSSSREITEAAVLLFYR
Take B1: the “binding to Aspergillus ethanol precipitate” value in experiment [1] was “bound Aspergillus ethanol precipitate with high affinity”. In addition, in experiment [2] (10^−7 M FLAG-tagged rIntL-1, heat-killed Af293 conidia and hyphae), the “binding to whole cells (conidia & hyphae)” value is “binds to whole cells”.

B2: mAb476: galF-specific monoclonal antibody, VH domain of SEQ ID NO:9 and VL domain of SEQ ID NO:10 (antibody, V domains shown)
VH: EVQLEESGGGLVQPGGSLRLSCATSGFTFSDFYMEWVRQTPGERLEWIAASRNKANDYTAEYSASVKGRFTVFRDTSQNILYLQMNALRAEDTAAYYCARDADYGKTFSWYFDVWGAGTTVTVSS
VL: DIVMTQDELSNPVTSGESVHISCRSSKSLLYKDGKTYLNWFLQRPGQSPQLLIYLMSTRASGVSDRFSGSGSGTDFTLEISRVKAEDVGVYYCQQLVEYPLTFGAGTKLELK
B2: the “effect on cellular rINTL-1 binding (galF recognition)” value in experiment [2] (10 μg/mL antibody with 10^−7 M rIntL-1) is listed as “GalF recognition is reduced”. Besides, the “reactive bands in Western blot” value in experiment [3] (healthy human pooled urine) was “no reactive bands”. For the same molecule, the “molecular weight of reactive bands in Western blot” value in experiment [3] (urine from patients with aspergillosis) is on record as 26 to 35 kDa. In addition, in experiment [4], the binding in immunoprecipitation entry is “No mAb476 binding occurred”.

(Values after patent publication US20200209238A1, “OPTIMIZING DIAGNOSTICS FOR GALACTOFURANOSE CONTAINING ANTIGENS” (The Johns Hopkins University, priority 2017, published 2020).)
